In US20180187185:

How the values were obtained:
Assay in all cases: cell_activity
[1] = tested on: AAVS1 TALE-FokI (FokI-XTN) (Xanthomonas TALE); details: average of replicates; locus inferred AAVS1; sequencing gave 6.5% indels (FIG. 12)
[2] = tested on: AAVS1 TALE-Clo051 (Clo051-XTN) (Xanthomonas TALE); details: average of replicates; locus inferred AAVS1; sequencing gave 9.3% indels (FIG. 11)
[3] = tested on: Bmpr2 REV RTN (Ralstonia TALE 16 EBEs in Xanthomonas TAL backbone-FokI) (Ralstonia (TALE repeats); Xanthomonas backbone); details: RTN pair p1+p2, Rat C6, Surveyor 250 bp band; 5.43% by 150 bp band; printed SEQ 150 differs from SEQ 148 complement at position 5
[4] = tested on: Bmpr2 FWD RTN (Ralstonia TALE 16 EBEs in Xanthomonas TAL backbone-FokI) (Ralstonia (TALE repeats); Xanthomonas backbone); details: RTN pair p1+p2, Rat C6, Surveyor 250 bp band; 5.43% by 150 bp band
[5] = tested on: Bmpr2 XTN (Xanthomonas TALEN-FokI pair) (Xanthomonas); details: TALEN pair, Rat C6, Surveyor 250 bp band; 3.66% by 150 bp band; XTN RVDs and half-sites not stated

AAVS1 target locus
activity [1]: 7.1 % cutting | activity [2]: 8.1 % cutting

TGACAGGTAAACGAAATA (double strand) [Bmpr2 reverse half-site (complement of the printed strand)]
activity [3]: 1.82 % cutting

TTGATAGTCGCCTTATGT (double strand) [Bmpr2 forward half-site]
activity [4]: 1.82 % cutting

TTGATAGTCGCCTTATGTTTTGGATACAGAATGTTGACAGGTAAACGAAATA (double strand) [Bmpr2 full TALEN target site]
activity [5]: 5.75 % cutting
